Data reported in patent US20240425569A1 (VISTERRA, published 2024).
Several values for one entry are separate records, joined by “and”; a condition that tells them apart may be missing. Identical values can stand only once. Like-named read-outs stand apart in the source and are kept apart here.

Columns and labels:
[1] = target: T1, EDIII-DV1 (E protein domain III of dengue virus serotype DV-1) (dengue virus serotype DV-1, UniProt P17763 573-680); test: competition ELISA
T1 construct: also called DENV-1; EDIII of DV-1
T1 chain: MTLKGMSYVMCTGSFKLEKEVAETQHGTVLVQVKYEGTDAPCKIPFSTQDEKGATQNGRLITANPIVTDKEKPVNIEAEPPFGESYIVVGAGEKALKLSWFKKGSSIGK

[2] = target: T2, EDIII-DV3 (E protein domain III of dengue virus serotype DV-3) (dengue virus serotype DV-3, UniProt P27915 571-678); test: competition ELISA
T2 construct: also called DENV-3; EDIII of DV-3

[3] = target: T3, New Caledonia/2009 (serotype IV EDIII); test: Kd table, method not stated; Ag DENV-4 NC
T3 construct: also called ED3-DV4/NewCal09; DENV-4 NC
T3 E protein domain III (EDIII): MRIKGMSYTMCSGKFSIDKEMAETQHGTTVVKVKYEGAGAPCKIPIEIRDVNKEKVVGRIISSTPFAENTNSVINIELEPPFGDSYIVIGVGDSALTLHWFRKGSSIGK

[4] = target: T1, EDIII-DV1 (E protein domain III of …)
[5] = target: T4, EDIII-DV2 (E protein domain III of dengue virus serotype DV-2) (dengue virus serotype DV-2, UniProt P14337 573-677)
T4 construct: also called DENV-2; EDIII of DV-2

[6] = target: T2, EDIII-DV3 (E protein domain III of …)
[7] = target: T5, New Guinea/1944 (NGC)* (serotype II EDIII) (Dengue virus 2); test: Kd table, method not stated; Ag DENV-2 NGC
T5 construct: isolated EDIII protein; also called EDIII of DENV-2 NGC

[8] = target: T6, Philippines/1956 (H87)* (serotype III EDIII) (Dengue virus 3)
T6 construct: isolated EDIII protein

[9] = target: T7, Nicaragua/2010 (serotype III EDIII)
T7 construct: also called ED3-DV3/Nicaragua10; DENV-3 Nic
T7 E protein domain III (EDIII): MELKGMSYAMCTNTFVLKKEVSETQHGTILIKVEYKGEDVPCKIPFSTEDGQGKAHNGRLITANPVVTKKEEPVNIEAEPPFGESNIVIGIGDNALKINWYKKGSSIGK

[10] = target: T8, Mexico/1977 (BC287/97)* (serotype IV EDIII) (Dengue virus 4); test: Kd table, method not stated; Ag DENV-4 BC2
T8 construct: isolated EDIII protein; also called EDIII of DENV-4 Mexico/1997 (BC287/97); DENV-4 BC2

[11] = target: T9, Peru/1995 (serotype II EDIII); test: Kd table, method not stated; Ag DENV-2 Peru
T9 construct: also called ED3-DV2/Peru95; DENV-2 Peru

[12] = target: T10, Singapore/2008 (serotype II EDIII); test: Kd table, method not stated; Ag DENV-2 Sing
T10 construct: also called ED3-DV2/Sing08; DENV-2 Sing

[13] = target: T11, Singapore/2009 (serotype III EDIII)
T11 construct: also called ED3-DV3/Sing09; DENV-3 Sing
T11 E protein domain III (EDIII): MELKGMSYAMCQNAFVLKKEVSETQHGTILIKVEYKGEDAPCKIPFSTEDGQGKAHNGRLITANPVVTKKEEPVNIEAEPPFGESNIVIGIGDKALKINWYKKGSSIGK

[14] = target: ED3-DV4/H241/Phil56 (EDIII of DENV-4 strain H241) (dengue virus serotype DENV-4, strain …, UniProt Q58HT7 572-679); test: Kd table, method not stated; Ag DENV-4 Phil
[15] = target: T12, Singapore/2010 (serotype IV EDIII); test: Kd table, method not stated; Ag DENV-4 Sing
T12 construct: also called ED3-DV4/Sing10; DENV-4 Sing
T12 E protein domain III (EDIII): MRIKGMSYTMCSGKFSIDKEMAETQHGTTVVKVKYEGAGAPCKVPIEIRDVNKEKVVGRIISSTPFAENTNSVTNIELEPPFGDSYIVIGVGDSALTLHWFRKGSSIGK

[16] = target: T1, EDIII-DV1 (E protein domain III of …)
[17] = target: T2, EDIII-DV3 (E protein domain III of …); remark: listed apart in the source
[18] = target: T13, EDIII-DV4 (E protein domain III of dengue virus serotype DV-4) (dengue virus serotype DV-4, UniProt P09866 572-679)
T13 construct: also called DENV-4

[19] = target: T13, EDIII-DV4 (E protein domain III of …); remark: listed apart in the source
[20] = target: T2, EDIII-DV3 (E protein domain III of …); remark: listed apart in the source
[21] = target: T13, EDIII-DV4 (E protein domain III of …); remark: listed apart in the source
[22] = target: T13, EDIII-DV4 (E protein domain III of …); test: competition ELISA; column 'EDIII-DV4'
[23] = target: T13, EDIII-DV4 (E protein domain III of …); remark: listed apart in the source
[24] = target: T13, EDIII-DV4 (E protein domain III of …); test: competition ELISA; column 'EDIII-DV4 [1/7]'
[25] = target: T4, EDIII-DV2 (E protein domain III of …); test: competition ELISA

B1: antibody A11 (antibody, V domains shown)
VH: VKLLEQSGAELVKPGASVRLSCTASGFNIKDTYMSWVKQRPEQGLEWIGRIDPENGDTKYDPKFQGKATITADTSSNTAYLHLSSLTSGDTAVYYCSRGWEGFAYWGQGTLVTVSA
VL: ELVMTQTPASLAVSLGQRATISCRASENVDKYGNSFMHWYQQKAGQPPKLLIYRASELQWGIPARFSGSGSRTDFTLTINPVEADDVATYFCQRSNEVPWTFGGGTKLEIK
notes: also called mAb A11; 4E5A
With B1 the Kd [1] was 0.35 nM and 0.269 nM, the Kd [2] was 16.8 nM and 18 nM and the Kd [3] was 202 nM. For the same binder, the Kd [4] was 0.269 nM, the Kd [5] was under 0.1 nM and the Kd [6] was 18 nM. It also gave a Kd [7] of under 0.1 nM, a Kd [8] of 14.1 nM and a Kd [9] of 32.1 nM. For the same binder, the Kd [10] was 86.2 nM, the Kd [11] was 0.39 nM and the Kd [12] was under 0.1 nM. It also gave a Kd [13] of 7.5 nM, a Kd [14] of 5080 nM and a Kd [15] of 136 nM.

B2: mouse mAb 4E11 (antibody, V domains shown)
VH: VKLLEQSGAELVKPGASVRLSCTASGFNIKDTYMSWVKQRPEQGLEWIGRIDPANGDTKYDPKFQGKATITADTSSNTAYLHLSSLTSGDTAVYYCSRGWEGFAYWGQGTLVTVSA
VL: ELVMTQTPASLAVSLGQRATISCRASENVDRYGNSFMHWYQQKAGQPPKLLIYRASNLESGIPARFSGSGSRTDFTLTINPVEADDVATYFCQRSNEVPWTFGGGTKLEIK
notes: also called antibody 4E11
Work on B2 yielded a Kd [7] of 5.2 nM, a Kd [8] of 21.8 nM and a Kd [10] of 40800 nM. For the same binder, the Kd [16] was 0.33 nM and the Kd [17] was 21.8 nM.

B3: antibody B48 (antibody, V domains shown)
VH: QVQLVQSGAEVKKPGASVKVSCKAGFNIKDTYMSWVRQAPEQGLEWMGRIDPENGDTKYDPKLQGRVTMTADTSTNTAYMELRSLRSDDTAVYYCARGWEGFAYWGQGTLVTVSS
VL: DIVMTQSPASLAVSLGERATISCRASENVDKYGNSFMHWYQQKPGQPPKLLIYRASELQWGVPDRFSGSGSGTDFTLTISSLQAEDVAVYYCQRSNEVPWTFGQGTKLEIK
notes: also called mAb B48
B3 gave a Kd [4] of 0.123 nM, a Kd [6] of 8 nM and a Kd [18] of 27.6 nM. The Kd [19] was 19.3 nM.

B4: antibody A48 (antibody, V domains shown)
VH: QVQLVQSGAEVKKPGASVKVSCKASGFNIKDTYMSWVRQAPEQGLEWMGRIDPENGDTKYDPKLQGRVTMTADTSTNTAYMELRSLRSDDTAVYYCARGWEGFAYWGQGTLVTVSS
VL: DIVMTQSPASLAVSLGERATISCRASENVDKYGNSFMHWYQQKPGQPPKLLIYRASELQWGVPDRFSGSGSGTDFTLTISSLQAEDVAVYYCQRSNEVPWTFGQGTKLEIK
Work on B4 yielded a Kd [4] of under 0.1 nM and a Kd [6] of 5.8 nM.

B5: D178 (antibody, V domains shown)
VH: QVQLVQSGAEVKKPGASVKVSCKAGFNIKDVYMSWVRQAPEQGLEWMGRIDPENGDTKYDPKLQGRVTMTADTSTNTAYMELRSLRSDDTAVYYCVRGWEGFAYWGQGTLVTVSS
VL: DIVMTQSPASLAVSLGERATISCRASENVDKYGNSFMHWYQQKPGQPPKLLIYRASELQWGVPDRFSGSGSGTDFTLTISSLQAEDVAVYYCQRSNEVPWTFGQGTKLEIK
For B5, the Kd [20] was 1.05 nM and the Kd [21] was 4.67 nM.

B6: antibody D118 (antibody, V domains shown)
VH: QVQLVQSGAEVKKPGASVKVSCKASGWNIKDVYMSWVRQAPEQGLEWMGRIDPENGDTKYDPKLQGRVTMTADTSTNTAYMELRSLRSDDTAVYYCARGWEGFAYWGQGTLVTVSS
VL: DIVMTQSPASLAVSLGERATISCRASENVDKYGNSFMHWYQQKPGQPPKLLIYRASELQWGVPDRFSGSGSGTDFTLTISSLQAEDVAVYYCQRSNEVPWTFGQGTKLEIK
B6 gave a Kd [1] of under 0.1 nM, a Kd [2] of 9.07 nM and a Kd [22] of 24.4 nM. For the same binder, the Kd [23] was 12.6 nM and the Kd [24] was 12.6 nM.

B7: C128 (antibody, V domains shown)
VH: QVQLVQSGAEVKKPGASVKVSCKASGFNIKDVYMSWVRQAPEQGLEWMGRIDPENGDTKYDPKLQGRVTMTADTSTNTAYMELRSLRSDDTAVYYCSRGWEGFAYWGQGTLVTVSS
VL: DIVMTQSPASLAVSLGERATISCRASENVDKYGNSFMHWYQQKPGQPPKLLIYRASELQWGVPDRFSGSGSGTDFTLTISSLQAEDVAVYYCQRSNEVPWTFGQGTKLEIK
B7 showed a Kd [20] of 0.63 nM and a Kd [21] of 18.7 nM.

B8: A68 (A48 + A98V) (antibody, V domains shown)
VH: QVQLVQSGAEVKKPGASVKVSCKASGFNIKDTYMSWVRQAPEQGLEWMGRIDPENGDTKYDPKLQGRVTMTADTSTNTAYMELRSLRSDDTAVYYCVRGWEGFAYWGQGTLVTVSS
VL: DIVMTQSPASLAVSLGERATISCRASENVDKYGNSFMHWYQQKPGQPPKLLIYRASELQWGVPDRFSGSGSGTDFTLTISSLQAEDVAVYYCQRSNEVPWTFGQGTKLEIK
Binder B8 has a Kd [5] of under 0.1 nM, a Kd [6] of 3 nM and a Kd [18] of 13.1 nM.

B9: antibody C98 (antibody, V domains shown)
VH: QVQLVQSGAEVKKPGASVKVSCKASGFNIKDVYMSWVRQAPEQGLEWMGRIDPENGDTKYDPKLQGRVTMTADTSTNTAYMELRSLRSDDTAVYYCVRGWEGFAYWGQGTLVTVSS
VL: DIVMTQSPASLAVSLGERATISCRASENVDKYGNSFMHWYQQKPGQPPKLLIYRASELQWGVPDRFSGSGSGTDFTLTISSLQAEDVAVYYCQRSNEVPWTFGQGTKLEIK
In the case of B9, the Kd [1] is reported as under 0.1 nM, the Kd [25] is reported as under 0.1 nM and the Kd [2] is reported as 1.29 nM. The Kd [20] was 1.21 nM.
